For data set [1], the target named is T1, his6-SonA (Shewanella oneidensis), expressed alone as substrate for kinetics.
T1 chain: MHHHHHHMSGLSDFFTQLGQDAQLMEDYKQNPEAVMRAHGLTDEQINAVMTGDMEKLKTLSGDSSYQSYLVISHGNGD

In data set [2] the target is T2, his6-SonA, split borosin precursor SonA (Shewanella oneidensis) with N-terminal hexa-histidine tag, co-expressed with SonM.
T2 chain: T1 chain

Data set [3] concerns the target T3, his6-SonA, split borosin precursor SonA (Shewanella oneidensis) with N-terminal hexa-histidine tag, … (Shewanella oneidensis, alpha-N-methylations on L63 and I65 (the vast majority purified in the 2-alpha-N-methylated state)).
T3 construct: This complex was used for crystallisation; also called WP_011071666
T3 chain: T1 chain
Put plainly: co-purification of untagged SonM with his6-SonA by nickel affinity and size exclusion chromatography, SDS-PAGE.

Changes are numbered by the printed parent chain. In names and notes the source's numbering stands.

B1: his6-SonM wild type (Shewanella oneidensis), expressed alone for kinetics (protein)
chain: MHHHHHHSSMGSLVCVGTGLQLAGQISVLSRSYIEHADIVFSLLPDGFSQRWLTKLNPNVINLQQFYAQNGEVKNRRDTYEQMVNAILDAVRAGKKTVCALYGHPGVFACVSHMAITRAKAEGFSAKMEPGISAEACLWADLGIDPGNSGHQSFEASQFMFFNHVPDPTTHLLLWQIAIAGEHTLTQFHTSSDRLQILVEQLNQWYPLDHEVVIYEAANLPIQAPRIERLPLANLPQAHLMPISTLLIPPAKKLEYNYAILAKLGIGPEDLG
For B1, the “substrate turnover (coupled-enzyme Michaelis-Menten kinetics)” value (shortened to “substrate turnover”) in data set [1] is “SonM wild type (WT) and several active-site mutants reveal multiple SonA substrate turnover”.

B2: SonM mutant Y93F (protein)
chain: B1 chain with Y102F
For B2, the “substrate turnover” value in data set [1] was “SonM wild type (WT) and several active-site mutants reveal multiple SonA substrate turnover”.

B3: SonM mutant Y71F (protein)
chain: B1 chain with Y80F
With B3, the “substrate turnover” value in data set [1] is “SonM wild type (WT) and several active-site mutants reveal multiple SonA substrate turnover”.

B4: SonM mutant Y58F (protein)
chain: B1 chain with Y67F
For the molecule B4, the “substrate turnover” value in data set [1] was “SonM wild type (WT) and several active-site mutants reveal multiple SonA substrate turnover”.

B5: SonM mutant R67K (protein)
chain: B1 chain with R76K
In the case of B5, the “substrate turnover” value in data set [1] is “SonM wild type (WT) and several active-site mutants reveal multiple SonA substrate turnover”.

B6: split borosin alpha-N-methyltransferase SonM (Shewanella oneidensis), untagged, co-expressed with his6-SonA (enzyme)
chain: MGSLVCVGTGLQLAGQISVLSRSYIEHADIVFSLLPDGFSQRWLTKLNPNVINLQQFYAQNGEVKNRRDTYEQMVNAILDAVRAGKKTVCALYGHPGVFACVSHMAITRAKAEGFSAKMEPGISAEACLWADLGIDPGNSGHQSFEASQFMFFNHVPDPTTHLLLWQIAIAGEHTLTQFHTSSDRLQILVEQLNQWYPLDHEVVIYEAANLPIQAPRIERLPLANLPQAHLMPISTLLIPPAKKLEYNYAILAKLGIGPEDLG
notes: also called WP_011071665
On to B6, for which the “MS1 alpha-N-methylation profile of SonA co-purified with SonM” value in data set [2] is on record as “the vast majority of SonA is purified as the 2-alpha-N-methylated state”. Besides, the binding result in data set [3] is listed as “binds”.

Source of the values: US20230090771A1 (REGENTS OF THE UNIVERSITY OF MINNESOTA, published 2023).
